According to doi:10.1101/2024.03.26.586525 (bioRxiv, 2024):
Where two headings read alike, the source gives them in different places.

B1: aldehyde dehydrogenase 4 (Ald4) (enzyme, S. cerevisiae (endogenous in SK1 cells), UniProt P46367 25-519, looked up)
chain: SHLPMTVPIKLPNGLEYEQPTGLFINNKFVPSKQNKTFEVINPSTEEEICHIYEGREDDVEEAVQAADRAFSNGSWNGIDPIDRGKALYRLAELIEQDKDVIASIETLDNGKAISSSRGDVDLVINYLKSSAGFADKIDGRMIDTGRTHFSYTKRQPLGVCGQIIPWNFPLLMWAWKIAPALVTGNTVVLKTAESTPLSALYVSKYIPQAGIPPGVINIVSGFGKIVGEAITNHPKIKKVAFTGSTATGRHIYQSAAAGLKKVTLELGGKSPNIVFADAELKKAVQNIILGIYYNSGEVCCAGSRVYVEESIYDKFIEEFKAASESIKVGDPFDESTFQGAQTSQMQLNKILKYVDIGKNEGATLITGGERLGSKGYFIKPTVFGDVKEDMRIVKEEIFGPVVTVTKFKSADEVINMANDSEYGLAAGIHTSNINTALKVADRVNAGTVWINTYNDFHHAVPFGGFNASGLGREMSVDALQNYLQVKAVRAKLDE
B2: acetyl-coenzyme A synthetase 1 (Acs1) (enzyme, S. cerevisiae (endogenous in SK1 cells), UniProt Q01574 1-713, looked up)
chain: MSPSAVQSSKLEEQSSEIDKLKAKMSQSAATAQQKKEHEYEHLTSVKIVPQRPISDRLQPAIATHYSPHLDGLQDYQRLHKESIEDPAKFFGSKATQFLNWSKPFDKVFIPDPKTGRPSFQNNAWFLNGQLNACYNCVDRHALKTPNKKAIIFEGDEPGQGYSITYKELLEEVCQVAQVLTYSMGVRKGDTVAVYMPMVPEAIITLLAISRIGAIHSVVFAGFSSNSLRDRINDGDSKVVITTDESNRGGKVIETKRIVDDALRETPGVRHVLVYRKTNNPSVAFHAPRDLDWATEKKKYKTYYPCTPVDSEDPLFLLYTSGSTGAPKGVQHSTAGYLLGALLTMRYTFDTHQEDVFFTAGDIGWITGHTYVVYGPLLYGCATLVFEGTPAYPNYSRYWDIIDEHKVTQFYVAPTALRLLKRAGDSYIENHSLKSLRCLGSVGEPIAAEVWEWYSEKIGKNEIPIVDTYWQTESGSHLVTPLAGGVTPMKPGSASFPFFGIDAVVLDPNTGEELNTSHAEGVLAVKAAWPSFARTIWKNHDRYLDTYLNPYPGYYFTGDGAAKDKDGYIWILGRVDDVVNVSGHRLSTAEIEAAIIEDPIVAECAVVGFNDDLTGQAVAAFVVLKNKSSWSTATDDELQDIKKHLVFTVRKDIGPFAAPKLIILVDDLPKTRSGKIMRRILRKILAGESDQLGDVSTLSNPGIVRHLIDSVKL

What was measured:
cryo-EM structure [1] = molecular target: the molecule itself; test: cryo-EM structure
cryo-EM structure [2] = molecular target: the molecule itself; test: cryo-EM structure; remark: listed apart in the source

Protein | stoichiometry N (cryo-EM structure [1]) | stoichiometry N (cryo-EM structure [2])
B1 | 4 | –
B2 | – | 3
